Results as given in patent US20090028842A1, “Dekkera/Brettanomyces Cytosine Deaminases And Their Use” (ZGene A/S, priority 2005, published 2009).

Experiments:
[1] = assay type: physicochemical; settings: storage at 50° C., his-tagged enzyme
Description: Purified and his-tagged CD from D. bruxellensis and S. cerevisiae CD were assayed after different periods of storage at 50° C. and 37° C. (FIGS. 8a and 8b). Indeed, D. bruxellensis CD was extremely stable at 50° C. when compared to S. cerevisiae CD which lost all activity after only 4 minutes. Half life for D. bruxellensis CD at 50° C. was app. 3 hours (FIG. 8a). […] It should be observed that the temperature stability of the proteins without his-tags could be different.

[2] = CD activities with purified his-tagged proteins; assay type: biochemical; settings: purified his-tagged protein, 37° C., cytosine 500 μM, triplicates, mean with standard deviation
Description: For recombinant protein expression, E. coli cells were grown to a density of A600 nm=0.5-0.6 in LB medium supplemented with 100 μg/ml ampicillin, and the expression was induced with 10 μM IPTG for 8 h at 25° C. The cells were harvested by centrifugation, and the pellet was resuspended in 25 ml ice-cold binding buffer A […] (50 mM sodium phosphate pH 8.0; 300 mM NaCl; 10% glycerol; 25 mM imidazole) containing protease inhibitor cocktail (Complete™-EDTA free from Roche Diagnostics). The cells were homogenized using a French Press, subjected to centrifugation at 12,000×g for 30 minutes (4° C.), filtered through a […] Whatman glass microfiber filter and a […] cellulose acetate filter, and loaded onto a 5 ml Ni^2+-NTA column (Qiagen). […]
Bacteria or cell lines were grown as described, harvested and stored at −80° C. until activity testing. […] Cytosine deaminase activities were determined spectrophotometrically by monitoring the absorbance decrease at 286 nm (Δε286=−0.68 mM^−1 cm^−1) resulting from the deamination of cytosine to uracil. […]
To characterize the substrate specificities of yeast CDs, purified proteins were measured at 37° C. and fixed cytosine concentration and assays was performed as described in Example 1 (Enzyme assays) (Table 3).

[3] = CD activities in crude extracts of BL21 cells transformed with CD genes; assay type: biochemical; settings: cytosine 500 uM, triplicates, mean with standard deviation
Description: Bacteria or cell lines were grown as described, harvested and stored at −80° C. until activity testing. Cells were submitted to brief sonication in extraction buffer (50 mM Tris/HCl pH 7.5, 1 mM DTT, 10% (v/v) glycerol, 1% (v/v) Triton X-100, protease inhibitor cocktail Complete™ from Roche Diagnostics). Cytosine deaminase activities were determined spectrophotometrically by monitoring the absorbance decrease at 286 nm (Δε286=−0.68 mM^−1 cm^−1) resulting from the deamination of cytosine to uracil. Assays were initiated by the addition of CD to 0.5 mM cytosine in 50 mM Tris-HCL at pH 7.5 and 30° C. and followed for 150 sec. One unit of CD was defined to catalyze the formation of 1 μmol of uracil per min. Dual beam recording ZEIS spectrophotometer, thermostated at 30° C., was used for the assays.
To better characterize D. bruxellensis CD over expression of the protein in bacteria was done. In addition to D. bruxellensis CD, homologous genes from S. cerevisiae was also amplified from total genomic DNA and cloned as histidin tagged construct into pET100 bacterial expression vector. The plasmids were transformed into E. coli BL21 strain and protein expression was induced by IPTG for 8 hours. After harvesting, cell extracts were spectrophotometrically measured for cytosine and 5-FC deamination. All yeast CDs tested were functional when expressed in bacteria (Table 2).

B1: Sc CD (PZG738): cytosine deaminase from Saccharomyces cerevisiae (FCY1 gene), recombinant his-tagged protein in pET100 (protein, UniProt Q12178 1-158, looked up)
Cytosine deaminase: MVTGGMASKWDQKGMDIAYEEAALGYKEGGVPIGGCLINNKDGSVLGRGHNMRFQKGSATLHGEISTLENCGRLEGKVYKDTTLYTTLSPCDMCTGAIIMYGIPRCVVGENVNFKSKGEKYLQTRGHEVVVVDDERCKKIMKQFIDERPQDWFEDIGE
modifications: His tag
notes: cytosine deaminase from Saccharomyces cerevisiae (FCY1 gene), recombinant his-tagged protein in pET100
[1]
  Time after which all activity was lost: 4 min
[2]
  CD activity, Cytosine: 888.4 ± 4.8 U/mg/min
[3]
  CD activity, Cytosine: 40.69 ± 0.56
